Laboratory results as given in US20230406948A1 (APEXIGEN, published 2023).

Key:
[1] = molecular target: T1, human CD40 on cells (native CD40 on Ramos cells, human B cells, human monocyte-derived dendritic cells); cell … (human, UniProt P25942 21-193); assay: cell-based or functional assay
[2] = molecular target: T1, human CD40 on cells (native CD40 on …); assay: FACS on live Ramos cells, goat anti-human IgG (H+L) PE
Method: (§1) In another experiment, the ability of the CD40 antibodies to bind to native CD40 protein was determined by FACS analysis with live Ramos cells. Ramos cells were harvested and blocked with 1.5 ml blocking buffer (0.1% BSA/PBS) for 30 minutes. Antibodies at various concentrations were added to cells and incubated for 1 hour. After washing, 50 ul Goat-anti-human IgG (H+L) PE antibody at 1:1000 dilution in blocking solution was added and incubated for 30 minutes. Cells were then washed with PBS and were re-suspended with […] and analyzed by FACS. The antibodies tested were the 19-21 rabbit anti-CD40 agonist antibody, SGN-40 developed by Seattle Genetics and CP870893 from Pfizer.

[3] = molecular target: T1, human CD40 on cells (native CD40 on …); assay: cell-based or functional assay; remark: listed apart in the source
CD40-Fc protein = molecular target: T2, CD40-Fc protein (Homo sapiens (Human), UniProt P25942 21-193); assay: ELISA, plates coated with CD40-Fc protein, OD405nm
T2 construct: not shown: Fc
T2 sequence (P25942 21-193 limits assumed): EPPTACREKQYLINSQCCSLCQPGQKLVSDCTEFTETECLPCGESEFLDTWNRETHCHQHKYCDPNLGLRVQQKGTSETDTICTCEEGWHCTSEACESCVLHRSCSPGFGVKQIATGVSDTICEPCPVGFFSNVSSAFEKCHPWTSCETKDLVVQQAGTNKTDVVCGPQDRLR
Excerpt: In order to assess the ability of the APX005 […] mutant to bind to CD40, APX005 S267E heavy chain and light chain plasmids were purified from transformed bacteria and transfected into 293-6E cell. Four days after transfection, antibody-containing culture supernatants were collected and tested for binding to CD40 using ELISA (ELISA plates coated with CD40-Fc protein).

[4] = molecular target: T1, human CD40 on cells (native CD40 on …); assay: FACS on live Ramos cells, goat anti-human IgG PE
Method: as §1

T1 sequence (P25942 21-193): as the sequence (P25942 21-193 limits assumed) above

B1: c19-21, chimeric 19-21 (rabbit Fab and human IgG1) (antibody, V domains shown)
VH: QSLEESGGRLVTPGTPLTLTCTVSGFDLSSNAMNWVRQAPGKGLEWIGYITISGSAGYASWAKGRFTISKTSTTVDLKISSPTTEDTATYFCARGYNTMAIWGPGTLVTVSS
VL: AQVLTQTPSPVSAPVGGTVTINCQSSQNVLINNRLAWYQQKPGQPPKLLIYDASKLASGVPSRFKGSGSGTQFTLTISGVQCDDAATYYCQAGYSSGDGNAFGGGTEVVVK
- Pro-apoptosis activity (IC50) [1]: 0.02 µg/mL

B2: 19-21 rabbit anti-CD40 agonist antibody (antibody, V domains shown)
VH: B1 VH
VL: B1 VL
notes: Whether the rabbit or the chimeric form was used there is not clear
- EC50 [2]: 0.0201 µg/mL

B3: cR-8, chimeric R-8 (rabbit Fab and human IgG1) (antibody, V domains shown)
VH: QSLEESGGDLVKPGASLTLTCTASGFSFSSTYVCWVRQAPGKGLEWIACIYTGDGTNYSASWAKGRFTISKPSSTTVTLQMTSLTPADTATYFCARPDITYGFAINFWGPGTLVTVSS
VL: DIVMTQTPSSASEPVGGTVTIKCQASQSISSRLAWYQQKPGQPPKLLIYRASTLASGVPSRFKGSGSGTEFTLTISDLECADAATYYCQCTGYGISWPIGGGTEVVVK
- Pro-apoptosis activity (IC50) [1]: 0.45 µg/mL

B4: CP870893 (antibody, V domains shown)
VH: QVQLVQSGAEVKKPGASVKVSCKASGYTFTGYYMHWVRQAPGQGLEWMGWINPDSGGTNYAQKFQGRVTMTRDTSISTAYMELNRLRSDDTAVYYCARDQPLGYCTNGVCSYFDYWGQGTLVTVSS
VL: DIQMTQSPSSVSASVGDRVTITCRASQGIYSWLAWYQQKPGKAPNLLIYTASTLQSGVPSRFSGSGSGTDFTLTISSLQPEDFATYYCQQANIFPLTFGGGTKVEIK
- EC50 [2]: 0.171 µg/mL
- EC50 (ng/ml), CD40 agonist activity: up-regulation of CD86 on human B cells [3]: 37 ng/mL

B5: APX005 S267E mutant (antibody, human IgG1, V domains shown)
VH: QVQLVESGGGVVQPGRSLRLSCAASGFSFSSTYVCWVRQAPGKGLEWIACIYTGDGTNYSASWAKGRFTISKDSSKNTVYLQMNSLRAEDTAVYFCARPDITYGFAINFWGPGTLVTVSS
VL: DIQMTQSPSSLSASVGDRVTIKCQASQSISSRLAWYQQKPGKPPKLLIYRASTLASGVPSRFSGSGSGTDFTLTISSLQPEDVATYYCQCTGYGISWPIGGGTKVEIK
- EC50 [2]: 0.0266 µg/mL
- EC50 (ng/ml), CD40 agonist activity: up-regulation of CD86 on human B cells [3]: 4.15 ng/mL
- EC50 (CD40-Fc protein): 0.0551 µg/mL
- fold higher affinity than CP870893 [4]: 6 fold

B6: cR-33, chimeric R-33 (rabbit Fab and human IgG1) (antibody, V domains shown)
VH: QSLEESGGDLVKPGASLTLTCTASGFSFSSSYWICWVRQAPGKGLEWIACINTGSSVTTVYARWAKGRFTISKASSTTVTLQMTSLTAADTATYFCARYIIPGYNFNLWGPGTLVTVSS
VL: AYDMTQTPASVEVAVGGTVTINCQASQSISSYLYWYQQKPGQPPKLLIYDASKLASGVPSRFKGSGSGTQFTLTITGVECADAATYYCQQGYSHINVDNIFGGGTEVVVK
- Pro-apoptosis activity (IC50) [1]: 0.9 µg/mL

B7: cR-3, chimeric R-3 (rabbit Fab and human IgG1) (antibody, V domains shown)
VH: QSLEESGGDLVKPGASLTLTCTASGFSFSDSFWIAWVRQAPGKGLEWIGCIHALSSGSTYYANWARGRFTISKTSSTTVTLQMNSLTAADTATYFCARSYAGYADYNVATGLNLWGPGTLVTVSS
VL: DVVMTQTPSSASAAVGGTVTTKCQASQSIGSYLAWYQQKPGQRPKLLIYAASNLASGVPSRFKGSRSGTEYTLTISGVQREDAATYYCLGSFTGSDTTFGGGTELEIL
- Pro-apoptosis activity (IC50) [1]: 0.57 µg/mL
